From patent US20250339558A1

Target: CD20 (UniProt P11836)
Test: cell-based or functional assay

UniProt P11836, sequence (P11836 whole entry): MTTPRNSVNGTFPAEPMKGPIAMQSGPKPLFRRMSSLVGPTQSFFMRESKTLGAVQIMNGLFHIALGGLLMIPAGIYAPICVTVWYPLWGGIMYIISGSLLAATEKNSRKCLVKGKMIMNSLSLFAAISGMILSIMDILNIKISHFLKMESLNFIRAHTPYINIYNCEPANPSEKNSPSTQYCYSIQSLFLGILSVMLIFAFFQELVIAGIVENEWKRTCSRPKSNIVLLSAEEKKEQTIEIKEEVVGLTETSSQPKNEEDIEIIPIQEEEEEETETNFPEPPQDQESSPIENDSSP

Q: For Rituximab (antibody), which CDC Depletion Efficiency (complement-dependent cytotoxicity killing) is on record?
A: 60%
